From the nanobody polyreactivity screen of Harvey et al. (2022)

Experiment: yeast display, Sf9 membrane polyspecificity reagent, FACS + sequencing; frameworks hold sequencing errors
Outline: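 Nanobodies came from a synthetic yeast display library in Saccharomyces cerevisiae BJ5465, induced with galactose for 36–48 hours and stained for 1 hour at 4 °C with 10% biotinylated, detergent-solubilized Sf9 membrane reagent. Cells were enriched on streptavidin microbeads and then FACS-sorted, with low and high (top ~1%) gates set on anti-HA fluorescence for expression and streptavidin fluorescence for reagent binding. Each polyreactivity label reflects the gate a clone came from. Genes were amplified by colony PCR, sequenced by MiSeq 2 × 250 and filtered by CDR length.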

Q: With “QVQLVESGGGIVQAGGSLRLSCAASGIIFWNYAMGWYRQAPGKERELVAAITDGGSTYYADSVKGRFTISRDNEKNTVYLQMNSLKPEDNAVYYCNTDWAYLSDYWGQGTQVTVSS” as the sequence, how does the “polyreactivity (PSR sort gate)” value read?
A: Its value is “low polyreactivity”.

Q: Which “polyreactivity (PSR sort gate)” value does the source give for “QVQLVESGGGIVQAGGSLRLSCAASGITFGSYVMGWYRQAPGKERELVAAINIGGGTYYADSVKGRFTISRDNAKNTVYLQMISLKPEDTAVYYCARDFYWYYRAARLDYWGQGTQVTVSS” here?
A: Its value is “high polyreactivity”.

Q: With “QVQLVESGGGIVQAGGSLRLSCAASGITFKGYTMGWYRQAPGKERELVATISRGGRTYADSVKGRFTISRDNAKNTVYLQMNSLKPEDTAVYYCAAQAERYGYEYWGQGTQVTVSS” as the sequence, how does the “polyreactivity (PSR sort gate)” value read?
A: The value was “low polyreactivity”.

Q: For “QVQLVESGGGIVQAGGSLRLSCAASGITLINYAMGWYRQAPGKERELVAAISTSGSSTYYADSVKGRFTISRDNAKNTVYLQMNSLKPEDTAVYYCAAELDVYSLFGYWGQGTQVTVSS”, which “polyreactivity (PSR sort gate)” value is on record?
A: Its value is “low polyreactivity”.

Q: With “QVQLVESGGGIVQAGGSLRLSCAASGLIFSRNAMGWYRQAPGQERELVAAISTGGSTYYADSVKGRFTISRDNAKNTGYLQMNSLKPEDTAVYYCAAAPGYIYEYWGQGTQVTVSS” as the sequence, how does the “polyreactivity (PSR sort gate)” value read?
A: Its value is “low polyreactivity”.

Q: Which “polyreactivity (PSR sort gate)” value does the source give for “QVQLVESGGGIVQAGGSLRLSCAASGLTFQVNAMGWYRQAPGKERELVAGITFSGGSTYYADSVKGRFTISRDNAKNTVYLQMNSLKPEDTAVYYCAADARFYAYYYWGQGTQVTVSS” here?
A: The value was “low polyreactivity”.

Q: Which “polyreactivity (PSR sort gate)” value does the source give for “QVQLVESGGGIVQAGGSLRLSCAASGLTFRRNAMGWSRQAPGKERELVAAISSGGVRTYYADSVKGRFTISRDNAKNTVYLQMNSLKPEDTAVYYCAKDDLLVVRNVWFDYWGQGTQVTVSS” here?
A: Its value is “low polyreactivity”.

Q: With “QVQLVESGGGIVQAGGSLRLSCAASGNIFGGYAMGWYRQAPGKERELVAAISQRGGITYYADSVKGRFTISRDNAKNTVYLQMNSLKPEDTAVFYCAKRGPYGWYGAYDYWGQGTQVTVSS” as the sequence, how does the “polyreactivity (PSR sort gate)” value read?
A: Its value is “low polyreactivity”.

Q: Which “polyreactivity (PSR sort gate)” value does the source give for “QVQLVESGGGIVQAGGSLRLSCAASGRIFATYAMGWYRQAPGKERELVAAIRSDGNTKYADSVKGRFTISRDNAKNTVYLQMNSLKPEDTAVYYCAAYARYAGVLYDYWGQGTQVTVSS” here?
A: The value was “high polyreactivity”.

Q: With “QVQLVESGGGIVQAGGSLRLSCAASGRIFAYNAMGWYRQAPGKDRELVAAISSGGNTYYADSVKGRFTISRDNAKNTVYLQMYRLKPEDTAVYYCNAGVGWHRYYSNYDYWGQGTQVTVSS” as the sequence, how does the “polyreactivity (PSR sort gate)” value read?
A: Its value is “low polyreactivity”.

Q: With “QVQLVESGGGIVQAGGSLRLSCAASGRIFDRYAMGWYRQAPGTERELVAAITGSGGRTYYADSVKGRFTISRDNAKNTVYLQMNSLKPEDTAVYYCARALGQRGYVYWGQGTQVTVSS” as the sequence, how does the “polyreactivity (PSR sort gate)” value read?
A: Its value is “high polyreactivity”.

Q: With “QVQLVESGGGIVQAGGSLRLSCAASGRIFDWYVMGWYRQAPGKERELVAAINSGVSTKYADSVKGRFTISRDNAKNTVYLQMNSLKPEDTAVYYCAAQSFSDYRRTGRKSSYYYWGQGTLVTVSS” as the sequence, how does the “polyreactivity (PSR sort gate)” value read?
A: Its value is “low polyreactivity”.

Q: With “QVQLVESGGGIVQAGGSLRLSCAASGRIFGIYAMGWYRQAPGKERELVASITDGTITNYADSVKGRFTISRDNAKYTVYLQMNSLKPEDTAVYYCAAGTQAHAYVVRPIEMDYWGQGTQVTVSS” as the sequence, how does the “polyreactivity (PSR sort gate)” value read?
A: Its value is “low polyreactivity”.

Q: With “QVQLVESGGGIVQAGGSLRLSCAASGRIFGYYAMGWYIQAPGNERELVASISSSGGSTYYADSVKGRFTISRDNAKNTVYLQMKSLKPEDTAVYYCNTASNRYQGWRAEFDYWGQGSQVTVSS” as the sequence, how does the “polyreactivity (PSR sort gate)” value read?
A: The value was “low polyreactivity”.

Q: With “QVQLVESGGGIVQAGGSLRLSCAASGRIFRGYGMGWYRQAPGKERELVAAITSRGGSTYYADSVKGRFTISRDNAKNTVYLQMNSLKPEDTAVYYCAAVGVGYPGHKYYYWGQGTQVTVSS” as the sequence, how does the “polyreactivity (PSR sort gate)” value read?
A: The value was “high polyreactivity”.

Q: With “QVQLVESGGGIVQAGGSLRLSCAASGRIFRSYTMGWYRQAPGKERELVAAISWTGGRTYYADSVKGRFTISRDNAKNTVYLQMNSLKPEDTAVYYCAATNRYYIYDYWGQGTQVTVSS” as the sequence, how does the “polyreactivity (PSR sort gate)” value read?
A: The value was “high polyreactivity”.

Q: With “QVQLVESGGGIVQAGGSLRLSCAASGRIFSKNTMGRYRKAPGKERELVAAIRSRAGSTYYADSVKGRFTISRDNAKNTVYLQMNSLIPEDTAVYYCAVPWFRSVDFDYWGQGTQVTVSS” as the sequence, how does the “polyreactivity (PSR sort gate)” value read?
A: The value was “low polyreactivity”.

Q: For “QVQLVESGGGIVQAGGSLRLSCAASGRIFVGYAMVWYRQAPGKERELVAAISRGGSTNYADSVKGRFTISRDNAKNTVYLQMNSLKPEDTAVYYCAKTYRTRWWGNGGDFWGQGTQVTVSS”, which “polyreactivity (PSR sort gate)” value is on record?
A: The value was “high polyreactivity”.

Q: With “QVQLVESGGGIVQAGGSLRLSCAASGRIISGYVMGWYRQAPGKERELVAAITRSGGSTNYADSVKGRFTISRDNAKNTVYLQMNSLKPEDTAVYYCNAVGRYYRVANGNYDYWGQGTQVTVSS” as the sequence, how does the “polyreactivity (PSR sort gate)” value read?
A: The value was “high polyreactivity”.

Q: For “QVQLVESGGGIVQAGGSLRLSCAASGRIIYNYGLGWYRQAPGKERELVARITTGGRTNYADSVKGRFTISRDNAKNTVYVQMNSLKPEDTAVYFCNAVGYHSRWYYYNYDYWGQGTQVTVSS”, which “polyreactivity (PSR sort gate)” value is on record?
A: Its value is “low polyreactivity”.

Q: For “QVQLVESGGGIVQAGGSLRLSCAASGRILVSNTMGWYRQAPGKERELVAGIRRGGSTDYADSVKGRFTISRDNAKNTVYLQMNSLKPEDTAVYYCNARYSNGYTKLGYWGQGTQVTVSS”, which “polyreactivity (PSR sort gate)” value is on record?
A: The value was “low polyreactivity”.

Q: For “QVQLVESGGGIVQAGGSLRLSCAASGRNFVRNAMGWYRQAPGKERELVAAISGGGGNTYYADSVKGRFTISRDNAKNTVYLQMYSLKPEDTAVYYCNALAYGYWYRYYYWGLGTQVTVSS”, which “polyreactivity (PSR sort gate)” value is on record?
A: Its value is “high polyreactivity”.

Q: For “QVQLVESGGGIVQAGGSLRLSCAASGRTFLYNAMGWYRQAPGKERELVAAISKSGGSTYYADSVKGRFTISRDNAKNTVYLLMNSLKPEESAVYYCAKVGGYRGRPSFGDWGQGTQVTVSS”, which “polyreactivity (PSR sort gate)” value is on record?
A: The value was “high polyreactivity”.

Q: With “QVQLVESGGGIVQAGGSLRLSCAASGRTFMLYAMGWYRQAPGKERELVASIDRNGGRTYYADSVKGRFTISRDNAKNTVYLQMNSLIPEDTAVYYCAARWYDYGYWGQGTQVTGSS” as the sequence, how does the “polyreactivity (PSR sort gate)” value read?
A: The value was “high polyreactivity”.

Q: For “QVQLVESGGGIVQAGGSLRLSCAASGRTFVVNDMGWYRQAPGKERELVAAINYNAGSTFYADSVKGRFTISRDNAKNTVYLQMNSLKPEDTAVYYCATVVYGYVEYDYWGQGTEVTVSS”, which “polyreactivity (PSR sort gate)” value is on record?
A: Its value is “low polyreactivity”.

Q: For “QVQLVESGGGIVQAGGSLRLSCAASGSIFDNAMGWYRQAPGKERELVAAITSGGITNYADSVKGRFTISRDNAKNTVYLQMNSLKPEDTAVYYCNTLSPTQTKYDYWGQGTKVTVSS”, which “polyreactivity (PSR sort gate)” value is on record?
A: The value was “low polyreactivity”.

Q: Which “polyreactivity (PSR sort gate)” value does the source give for “QVQLVESGGGIVQAGGSLRLSCAASGSIFDSYTMGWYRQAPGKERELVATINRSGGSTYYADSVKGRFTISRDTAKNTVYLQMNSLKPEDTAVYYCATVYPYTPYSSWRSKYDYWGQGTQVTVSS” here?
A: The value was “low polyreactivity”.

Q: For “QVQLVESGGGIVQAGGSLRLSCAASGSIFGFYALGWYRQAPGKERELVAAISNSAGSTFYADSVKGRFTISRDNAKNTVYLQMNSLKPEDTAVYYCAAEGEFSDWQHQYVVYWYDYWGQGTQVTVSS”, which “polyreactivity (PSR sort gate)” value is on record?
A: The value was “high polyreactivity”.

Q: Which “polyreactivity (PSR sort gate)” value does the source give for “QVQLVESGGGIVQAGGSLRLSCAASGSIFRRYATGWYRQAPGKERELVAAISSGGSTYADSVKGRFTISRDNAKNTVYLQMNSLKPEDTAVYYCAVDWAQEDGYWGQGTQVTVSS” here?
A: The value was “low polyreactivity”.

Q: Which “polyreactivity (PSR sort gate)” value does the source give for “QVQLVESGGGIVQAGGSLRLSCAASGSIFRYNVMGLYRQAPGKERELVAGITRIGGSTYYADSVKGRFTISRDNAKNTVYLQMNSLKQEDTAVYYCGTARFSYPGPFGWLDEYYYWGQGTQVTVSS” here?
A: Its value is “low polyreactivity”.

Q: With “QVQLVESGGGIVQAGGSLRLSCAASGSIFSGNAMGWYRQAPGKERELVAAIDRGGSTYYADSVKGRFTISRDNAKNTVYLQMNRLKPEDTAVYYCAKEYIVYNWAFYYWGQGTQVTVSS” as the sequence, how does the “polyreactivity (PSR sort gate)” value read?
A: Its value is “low polyreactivity”.

Q: With “QVQLVESGGGIVQAGGSLRLSCAASGSIFTRYAMGWYRPAPGKERELVAAITKSGSRTYYADSVKGRFTISRDNAKNTVYLQLNCLIAEDTAVFYCATLQGDSSSQYDYWGQGTQVTVSS” as the sequence, how does the “polyreactivity (PSR sort gate)” value read?
A: Its value is “high polyreactivity”.

Q: For “QVQLVESGGGIVQAGGSLRLSCAASGSIFTVNALGWYRQAPGKERELVAAITFGGGRTYYADSVKGRFTISRDNAKNTVYLQMNSLKPEDTAVYYCAVSRKGLGSVEYWGQGTQVTVSS”, which “polyreactivity (PSR sort gate)” value is on record?
A: Its value is “low polyreactivity”.

Q: For “QVQLVESGGGIVQAGGSLRLSCAASGSILDPNAMGTYRQAPGKEREFVASISASGGSTYYADSVKGRFSISRDIAKNTVYLQLNSLKPEDTAVYYCATLQGDSSSQYDYWGQGTQVTVSS”, which “polyreactivity (PSR sort gate)” value is on record?
A: The value was “high polyreactivity”.

Q: For “QVQLVESGGGIVQAGGSLRLSCAASGSTFDRYAMGWYRQAPGKERALVAAISWSGGSTYYADSVKGRFTISRDNAKNTVFLQMNSLKPEDTAVYYCNTASYYRRFHKYDYWGQGTQVTVSS”, which “polyreactivity (PSR sort gate)” value is on record?
A: Its value is “high polyreactivity”.

Q: For “QVQLVESGGGIVQAGGSLRLSCAASGSTFKSYAMGWYRQAPGKERELVAAITHRGSTYYADSVKGSFTISRDNAKNTVYLQMKSLKPEDTAVYYCNVRRICNGRRVDYWGQGTQVTVSS”, which “polyreactivity (PSR sort gate)” value is on record?
A: Its value is “high polyreactivity”.

Q: Which “polyreactivity (PSR sort gate)” value does the source give for “QVQLVESGGGIVQAGGSLRLSCAASGSTFSKYAMGWYRQAPGNERELVAAISSRGGSTYYADSVKGRFTISRDNAKNTVYLQMNCLKPEDTAVYYCAAKFYAEYGYWGHGTQVTVSS” here?
A: Its value is “high polyreactivity”.

Q: For “QVQLVESGGGIVQAGGSLRLSCAASGSTFYKYAMGWYRQAPGKERELVASISRSGGSTSYADSVKGRFTISRDNAKNTVYLQMNSLKPEDTAVYYCAARSLSWTPYYYWGQGTQVTVSS”, which “polyreactivity (PSR sort gate)” value is on record?
A: The value was “high polyreactivity”.

Q: With “QVQLVESGGGIVQAGGSLRLSCAASGSTGFNTMGWYRQAPGKERELVAAIRATGGSTYYADSVKGRFTISRDNAKNTVYLQMNSLKPEDTAVYYCAAKWFRQYLRQDRYYYWGQGTQVTVSS” as the sequence, how does the “polyreactivity (PSR sort gate)” value read?
A: The value was “high polyreactivity”.

Q: Which “polyreactivity (PSR sort gate)” value does the source give for “QVQLVESGGGIVQAGGSLRLSCAASGSTLGSNSMGWYRQAPGKERELVAAITWSGGTTYYADSVKGRFTISRDNAKNTVYLQMNSLKPEYTAVYYCATGQSVIYRYEYWGQGTQVTVSS” here?
A: The value was “low polyreactivity”.

Q: Which “polyreactivity (PSR sort gate)” value does the source give for “QVQLVESGGGIVQAGGSLRLSCAASGSTLRWNAMGWYRQAPGKERELVAAIRWSTGSTYYADSVKGRFTISRDNAKNTVYLQMNSLKPEDTAVYYCAARQGRARTPNDHNYWGQGTKVTVSS” here?
A: Its value is “high polyreactivity”.
